Consider seven substances from article PMC11024197.

Test [1] addresses PEX14 NTD (1-104) (human) (UniProt O75381). The test is described as follows: ITC; PEX14 (1-104) (20-60 uM, concentration corrected with the fit) in the cell, peptide or fragment in the syringe; 25 °C, 20 mM Tris pH 7.5, 50 mM NaCl; one-site binding model; single runs of triplicates and their averages.
For test [2] the target is unchanged. The test is described as follows: ITC; PEX14 NTD (1-104) (20-60 µM) in the cell, titrated with PEX5 W peptides or W0 (0.4-0.6 mM), PEX13 FxxxF (0.46 mM) or PEX13 SH3-CTR (1 mM); 25 °C; 20 mM Tris pH 7.5, 50 mM NaCl; one-site binding model; PEX14 concentration corrected with the fit; triplicates.
Test [3] addresses PEX13 SH3 domain (human) (UniProt Q92968). As to the kind of experiment: ITC; PEX13 SH3 at 35-48 µM titrated with PEX5 15-mer peptides or PEX5 1-76 (0.6-0.7 mM) or PEX13 350-403 (0.9-1 mM); 25 °C; 20 mM Tris pH 7.5, 50 mM NaCl; one-site model; triplicates.
Test [4] has the same target. The test is described as follows: ITC; PEX13 SH3 (35-48 uM) in the cell, peptide or fragment in the syringe; 25 °C, 20 mM Tris pH 7.5, 50 mM NaCl; one-site binding model; single runs of triplicates and their averages.
For test [5], the target named is PEX14 NTD (1-104) (human) (UniProt O75381). The test is described as follows: ITC; PEX14 (1-104) at 20-60 µM titrated with PEX5 W peptides or W0 (0.4-0.6 mM), PEX13 FxxxF (0.46 mM) or PEX13 SH3-CTR (1 mM); 25 °C; 20 mM Tris pH 7.5, 50 mM NaCl; one-site model; PEX14 concentration corrected with the fit; triplicates.
PEX14 NTD (1-104) (human), sequence (O75381 1-104): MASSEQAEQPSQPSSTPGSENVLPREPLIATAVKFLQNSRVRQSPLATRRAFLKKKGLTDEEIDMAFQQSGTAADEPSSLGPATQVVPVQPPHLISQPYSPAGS

pKd: −log10 of the molar value. “And” between values parts separate entries of the source, which are not always exact repeats. Identical values can stand only once.

Regarding PEX5 W2 peptide, the stoichiometry N came to 1 sites in test [1] and 1 in test [2].

For the substance PEX5 W3 peptide, the stoichiometry N in test [1] was determined as 1 sites; in test [2], 1.

As for PEX5 W4 peptide, the stoichiometry N turned out to be 1 sites in test [1] and 1 in test [2].

Consider “PEX13 FF/W4 (FxxxF core motif FESVF replaced with WYDEY), as titrated onto the SH3 domain (domain or fragment)”, for which the pKd in test [3] was 5.22.

“PEX13 FF/W4 (FxxxF fragment with the core motif FESVF replaced by WYDEY) (domain or fragment)”: in test [4], the pKd was 5.19 and 5.21 and 5.18; the stoichiometry N came to 1 sites.

With “PEX13 FxxxF peptide (residues 350-403) (from UniProt Q92968 350-403) (domain or fragment)”, the results for the pKd in test [5] and in test [3] were 5.55 and 4.57, respectively. Further, the stoichiometry N in test [5] came to 1.

As for “PEX13 SH3-CTR (residues 261-403) (from UniProt Q92968 261-403) (domain or fragment)”, in test [5], the pKd was 5.27 and the stoichiometry N is 1.
